# Measured values reported in the RNAGym collection of RNA variant scans (doi:10.1021/acssynbio.7b00057).
# B1: Pistol ribozyme (parent)
# chain: GGGUCGUUGUUCCAUAAUCGCGUGGAUAUGGCACGCAAGUUUCUACCGGGCACCGUAAAUGUCCGACUGGAGCCGUUCGGGCGGCUAUAAACAGACCUCAGGCCCGAAGCGUGGCGGCACCUGCCGCCGGUGGUAAAAAAGAUCGGAAGAGCACACGUCU
# Variants of: B1
# Assay: aptazyme ON/OFF ratio, guanine; higher = stronger switching; co-transcriptional cleavage with and without guanine
row,Variant,aptazyme ON/OFF ratio
1,GGGUCGCUAAAGCAUAAUCGCGUGGAUAUGGCACGCAAGUUUCUACCGGGCACCGUAAAUGUCCGACUGGAGCCGUUCGGGCGGCUAUAAACAGACCUCAGGCCCGAAGCGUGGCGGCACCUGCCGCCGGUGGUAAAAAAGAUCGGAAGAGCACACGUCU,1.2
2,GGGUCGCUAAAACAUAAUCGCGUGGAUAUGGCACGCAAGUUUCUACCGGGCACCGUAAAUGUCCGACUGGAGCCGUUCGGGCGGCUAUAAACAGACCUCAGGCCCGAAGCGUGGCGGCACCUGCCGCCGGUGGUAAAAAAGAUCGGAAGAGCACACGUCU,1.24
3,GGGUCGCUAAAUCAUAAUCGCGUGGAUAUGGCACGCAAGUUUCUACCGGGCACCGUAAAUGUCCGACUGGAGCCGUUCGGGCGGCUAUAAACAGACCUCAGGCCCGAAGCGUGGCGGCACCUGCCGCCGGUGGUAAAAAAGAUCGGAAGAGCACACGUCU,1.27
4,GGGUCGCUAAGACAUAAUCGCGUGGAUAUGGCACGCAAGUUUCUACCGGGCACCGUAAAUGUCCGACUGGAGCCGUUCGGGCGGCUAUAAACAGACCUCAGGCCCGAAGCGUGGCGGCACCUGCCGCCGGUGGUAAAAAAGAUCGGAAGAGCACACGUCU,1.02
5,GGGUCGCUAAACUAUAAUCGCGUGGAUAUGGCACGCAAGUUUCUACCGGGCACCGUAAAUGUCCGACUGGAGCCGUUCGGGCGGCUAUAAACAGACCUCAGGCCCGAAGCGUGGCGGCACCUGCCGCCGGUGGUAAAAAAGAUCGGAAGAGCACACGUCU,1.16
6,GGGUCGCUAAACAAUAAUCGCGUGGAUAUGGCACGCAAGUUUCUACCGGGCACCGUAAAUGUCCGACUGGAGCCGUUCGGGCGGCUAUAAACAGACCUCAGGCCCGAAGCGUGGCGGCACCUGCCGCCGGUGGUAAAAAAGAUCGGAAGAGCACACGUCU,1.08
7,GGGUCGCUAAACGAUAAUCGCGUGGAUAUGGCACGCAAGUUUCUACCGGGCACCGUAAAUGUCCGACUGGAGCCGUUCGGGCGGCUAUAAACAGACCUCAGGCCCGAAGCGUGGCGGCACCUGCCGCCGGUGGUAAAAAAGAUCGGAAGAGCACACGUCU,1.04
8,GGGUCGCUAAUCGAUAAUCGCGUGGAUAUGGCACGCAAGUUUCUACCGGGCACCGUAAAUGUCCGACUGGAGCCGUUCGGGCGGCUAUAAACAGACCUCAGGCCCGAAGCGUGGCGGCACCUGCCGCCGGUGGUAAAAAAGAUCGGAAGAGCACACGUCU,1.03
9,GGGUCGCUAAUCUAUAAUCGCGUGGAUAUGGCACGCAAGUUUCUACCGGGCACCGUAAAUGUCCGACUGGAGCCGUUCGGGCGGCUAUAAACAGACCUCAGGCCCGAAGCGUGGCGGCACCUGCCGCCGGUGGUAAAAAAGAUCGGAAGAGCACACGUCU,1.34
10,GGGUCGCUAACCUAUAAUCGCGUGGAUAUGGCACGCAAGUUUCUACCGGGCACCGUAAAUGUCCGACUGGAGCCGUUCGGGCGGCUAUAAACAGACCUCAGGCCCGAAGCGUGGCGGCACCUGCCGCCGGUGGUAAAAAAGAUCGGAAGAGCACACGUCU,1.07
11,GGGUCGCUAACCGAUAAUCGCGUGGAUAUGGCACGCAAGUUUCUACCGGGCACCGUAAAUGUCCGACUGGAGCCGUUCGGGCGGCUAUAAACAGACCUCAGGCCCGAAGCGUGGCGGCACCUGCCGCCGGUGGUAAAAAAGAUCGGAAGAGCACACGUCU,1.04
12,GGGUCGCUAACCAAUAAUCGCGUGGAUAUGGCACGCAAGUUUCUACCGGGCACCGUAAAUGUCCGACUGGAGCCGUUCGGGCGGCUAUAAACAGACCUCAGGCCCGAAGCGUGGCGGCACCUGCCGCCGGUGGUAAAAAAGAUCGGAAGAGCACACGUCU,1.03
13,GGGUCGCUAACUUAUAAUCGCGUGGAUAUGGCACGCAAGUUUCUACCGGGCACCGUAAAUGUCCGACUGGAGCCGUUCGGGCGGCUAUAAACAGACCUCAGGCCCGAAGCGUGGCGGCACCUGCCGCCGGUGGUAAAAAAGAUCGGAAGAGCACACGUCU,1.23
14,GGGUCGCUAACUGAUAAUCGCGUGGAUAUGGCACGCAAGUUUCUACCGGGCACCGUAAAUGUCCGACUGGAGCCGUUCGGGCGGCUAUAAACAGACCUCAGGCCCGAAGCGUGGCGGCACCUGCCGCCGGUGGUAAAAAAGAUCGGAAGAGCACACGUCU,1.05
15,GGGUCGCUAACUAAUAAUCGCGUGGAUAUGGCACGCAAGUUUCUACCGGGCACCGUAAAUGUCCGACUGGAGCCGUUCGGGCGGCUAUAAACAGACCUCAGGCCCGAAGCGUGGCGGCACCUGCCGCCGGUGGUAAAAAAGAUCGGAAGAGCACACGUCU,1.24
16,GGGUCGCUAACCCAUAAUCGCGUGGAUAUGGCACGCAAGUUUCUACCGGGCACCGUAAAUGUCCGACUGGAGCCGUUCGGGCGGCUAUAAACAGACCUCAGGCCCGAAGCGUGGCGGCACCUGCCGCCGGUGGUAAAAAAGAUCGGAAGAGCACACGUCU,1.09
17,GGGUCGCUAAACCAUAAUCGCGUGGAUAUGGCACGCAAGUUUCUACCGGGCACCGUAAAUGUCCGACUGGAGCCGUUCGGGCGGCUAUAAACAGACCUCAGGCCCGAAGCGUGGCGGCACCUGCCGCCGGUGGUAAAAAAGAUCGGAAGAGCACACGUCU,1.19
18,GGGUCGCUAAGCCAUAAUCGCGUGGAUAUGGCACGCAAGUUUCUACCGGGCACCGUAAAUGUCCGACUGGAGCCGUUCGGGCGGCUAUAAACAGACCUCAGGCCCGAAGCGUGGCGGCACCUGCCGCCGGUGGUAAAAAAGAUCGGAAGAGCACACGUCU,1.27

row,Variant,aptazyme ON/OFF ratio
1,GGGUCGCUAACAUAUAAUCGCGUGGAUAUGGCACGCAAGUUUCUACCGGGCACCGUAAAUGUCCGACUGGAGCCGUUCGGGCGGCUAUAAACAGACCUCAGGCCCGAAGCGUGGCGGCACCUGCCGCCGGUGGUAAAAAAGAUCGGAAGAGCACACGUCU,1.24
2,GGGUCGCUAACAGAUAAUCGCGUGGAUAUGGCACGCAAGUUUCUACCGGGCACCGUAAAUGUCCGACUGGAGCCGUUCGGGCGGCUAUAAACAGACCUCAGGCCCGAAGCGUGGCGGCACCUGCCGCCGGUGGUAAAAAAGAUCGGAAGAGCACACGUCU,1.1
3,GGGUCGCUAACAAAUAAUCGCGUGGAUAUGGCACGCAAGUUUCUACCGGGCACCGUAAAUGUCCGACUGGAGCCGUUCGGGCGGCUAUAAACAGACCUCAGGCCCGAAGCGUGGCGGCACCUGCCGCCGGUGGUAAAAAAGAUCGGAAGAGCACACGUCU,1.1
4,GGGUCGCUAAAGAAUAAUCGCGUGGAUAUGGCACGCAAGUUUCUACCGGGCACCGUAAAUGUCCGACUGGAGCCGUUCGGGCGGCUAUAAACAGACCUCAGGCCCGAAGCGUGGCGGCACCUGCCGCCGGUGGUAAAAAAGAUCGGAAGAGCACACGUCU,1.17
5,GGGUCGCUAAAGGAUAAUCGCGUGGAUAUGGCACGCAAGUUUCUACCGGGCACCGUAAAUGUCCGACUGGAGCCGUUCGGGCGGCUAUAAACAGACCUCAGGCCCGAAGCGUGGCGGCACCUGCCGCCGGUGGUAAAAAAGAUCGGAAGAGCACACGUCU,1.22
6,GGGUCGCUAAAGUAUAAUCGCGUGGAUAUGGCACGCAAGUUUCUACCGGGCACCGUAAAUGUCCGACUGGAGCCGUUCGGGCGGCUAUAAACAGACCUCAGGCCCGAAGCGUGGCGGCACCUGCCGCCGGUGGUAAAAAAGAUCGGAAGAGCACACGUCU,1.19
7,GGGUCGCUAAAUAAUAAUCGCGUGGAUAUGGCACGCAAGUUUCUACCGGGCACCGUAAAUGUCCGACUGGAGCCGUUCGGGCGGCUAUAAACAGACCUCAGGCCCGAAGCGUGGCGGCACCUGCCGCCGGUGGUAAAAAAGAUCGGAAGAGCACACGUCU,1.18
8,GGGUCGCUAAAUGAUAAUCGCGUGGAUAUGGCACGCAAGUUUCUACCGGGCACCGUAAAUGUCCGACUGGAGCCGUUCGGGCGGCUAUAAACAGACCUCAGGCCCGAAGCGUGGCGGCACCUGCCGCCGGUGGUAAAAAAGAUCGGAAGAGCACACGUCU,1.25
9,GGGUCGCUAAAUUAUAAUCGCGUGGAUAUGGCACGCAAGUUUCUACCGGGCACCGUAAAUGUCCGACUGGAGCCGUUCGGGCGGCUAUAAACAGACCUCAGGCCCGAAGCGUGGCGGCACCUGCCGCCGGUGGUAAAAAAGAUCGGAAGAGCACACGUCU,1.19
10,GGGUCGCUAACACAUAAUCGCGUGGAUAUGGCACGCAAGUUUCUACCGGGCACCGUAAAUGUCCGACUGGAGCCGUUCGGGCGGCUAUAAACAGACCUCAGGCCCGAAGCGUGGCGGCACCUGCCGCCGGUGGUAAAAAAGAUCGGAAGAGCACACGUCU,1.13
11,GGGUCGCUAACGCAUAAUCGCGUGGAUAUGGCACGCAAGUUUCUACCGGGCACCGUAAAUGUCCGACUGGAGCCGUUCGGGCGGCUAUAAACAGACCUCAGGCCCGAAGCGUGGCGGCACCUGCCGCCGGUGGUAAAAAAGAUCGGAAGAGCACACGUCU,1.35
12,GGGUCGCUAACUCAUAAUCGCGUGGAUAUGGCACGCAAGUUUCUACCGGGCACCGUAAAUGUCCGACUGGAGCCGUUCGGGCGGCUAUAAACAGACCUCAGGCCCGAAGCGUGGCGGCACCUGCCGCCGGUGGUAAAAAAGAUCGGAAGAGCACACGUCU,1.07
13,GGGUCGCUAACGUAUAAUCGCGUGGAUAUGGCACGCAAGUUUCUACCGGGCACCGUAAAUGUCCGACUGGAGCCGUUCGGGCGGCUAUAAACAGACCUCAGGCCCGAAGCGUGGCGGCACCUGCCGCCGGUGGUAAAAAAGAUCGGAAGAGCACACGUCU,1.12
14,GGGUCGCUAACGGAUAAUCGCGUGGAUAUGGCACGCAAGUUUCUACCGGGCACCGUAAAUGUCCGACUGGAGCCGUUCGGGCGGCUAUAAACAGACCUCAGGCCCGAAGCGUGGCGGCACCUGCCGCCGGUGGUAAAAAAGAUCGGAAGAGCACACGUCU,1.46
15,GGGUCGCUAACGAAUAAUCGCGUGGAUAUGGCACGCAAGUUUCUACCGGGCACCGUAAAUGUCCGACUGGAGCCGUUCGGGCGGCUAUAAACAGACCUCAGGCCCGAAGCGUGGCGGCACCUGCCGCCGGUGGUAAAAAAGAUCGGAAGAGCACACGUCU,1.27
16,GGGUCGCUAAAAUAUAAUCGCGUGGAUAUGGCACGCAAGUUUCUACCGGGCACCGUAAAUGUCCGACUGGAGCCGUUCGGGCGGCUAUAAACAGACCUCAGGCCCGAAGCGUGGCGGCACCUGCCGCCGGUGGUAAAAAAGAUCGGAAGAGCACACGUCU,1.29
17,GGGUCGCUAAAAGAUAAUCGCGUGGAUAUGGCACGCAAGUUUCUACCGGGCACCGUAAAUGUCCGACUGGAGCCGUUCGGGCGGCUAUAAACAGACCUCAGGCCCGAAGCGUGGCGGCACCUGCCGCCGGUGGUAAAAAAGAUCGGAAGAGCACACGUCU,1.23
18,GGGUCGCUAAAAAAUAAUCGCGUGGAUAUGGCACGCAAGUUUCUACCGGGCACCGUAAAUGUCCGACUGGAGCCGUUCGGGCGGCUAUAAACAGACCUCAGGCCCGAAGCGUGGCGGCACCUGCCGCCGGUGGUAAAAAAGAUCGGAAGAGCACACGUCU,1.2
